The results in this text go back to doi:10.1101/2024.07.02.601760.

For this test, the target named is T1, Arabidopsis thaliana 14-3-3 kappa (Arabidopsis thaliana), P48348.
T1 chain: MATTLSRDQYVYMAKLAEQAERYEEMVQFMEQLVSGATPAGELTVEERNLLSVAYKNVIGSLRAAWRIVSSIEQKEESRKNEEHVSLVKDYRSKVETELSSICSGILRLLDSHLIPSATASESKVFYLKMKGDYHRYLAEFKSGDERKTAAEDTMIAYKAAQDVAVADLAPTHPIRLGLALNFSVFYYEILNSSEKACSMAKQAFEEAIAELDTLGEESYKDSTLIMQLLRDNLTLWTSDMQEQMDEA
Briefly: SEC-MALS. The following applies: remark: other sources report otherwise.

In general, stoichiometry N refers to a count of units in the complex or per binding partner.

B1: Arabidopsis thaliana 14-3-3 kappa, P48348 1-248 (natural protein)
chain: MATTLSRDQYVYMAKLAEQAERYEEMVQFMEQLVSGATPAGELTVEERNLLSVAYKNVIGSLRAAWRIVSSIEQKEESRKNEEHVSLVKDYRSKVETELSSICSGILRLLDSHLIPSATASESKVFYLKMKGDYHRYLAEFKSGDERKTAAEDTMIAYKAAQDVAVADLAPTHPIRLGLALNFSVFYYEILNSSEKACSMAKQAFEEAIAELDTLGEESYKDSTLIMQLLRDNLTLWTSDMQEQMDEA
As to B1, the stoichiometry N is 2.
